Reference: patent CN112300289A (UNIV CHINA PHARMA, dated 2021)

Assays:
TNFα = test: cell-based or functional assay
整合素αvβ3 = biological target: T1, 整合素αvβ3 (human, UniProt P06756 31-1048; P05106 27-788); test: concluded from the MDA-MB-231 cell adhesion assay; no direct binding assay
T1 construct: whole, on cells; The adhesion assay used whole MDA-MB-231 cells; also called 整合素αvβ3受体; 玻连蛋白(Vitronectin,VN)受体
T1 sequence (P06756 31-1048, chain 1 of 2): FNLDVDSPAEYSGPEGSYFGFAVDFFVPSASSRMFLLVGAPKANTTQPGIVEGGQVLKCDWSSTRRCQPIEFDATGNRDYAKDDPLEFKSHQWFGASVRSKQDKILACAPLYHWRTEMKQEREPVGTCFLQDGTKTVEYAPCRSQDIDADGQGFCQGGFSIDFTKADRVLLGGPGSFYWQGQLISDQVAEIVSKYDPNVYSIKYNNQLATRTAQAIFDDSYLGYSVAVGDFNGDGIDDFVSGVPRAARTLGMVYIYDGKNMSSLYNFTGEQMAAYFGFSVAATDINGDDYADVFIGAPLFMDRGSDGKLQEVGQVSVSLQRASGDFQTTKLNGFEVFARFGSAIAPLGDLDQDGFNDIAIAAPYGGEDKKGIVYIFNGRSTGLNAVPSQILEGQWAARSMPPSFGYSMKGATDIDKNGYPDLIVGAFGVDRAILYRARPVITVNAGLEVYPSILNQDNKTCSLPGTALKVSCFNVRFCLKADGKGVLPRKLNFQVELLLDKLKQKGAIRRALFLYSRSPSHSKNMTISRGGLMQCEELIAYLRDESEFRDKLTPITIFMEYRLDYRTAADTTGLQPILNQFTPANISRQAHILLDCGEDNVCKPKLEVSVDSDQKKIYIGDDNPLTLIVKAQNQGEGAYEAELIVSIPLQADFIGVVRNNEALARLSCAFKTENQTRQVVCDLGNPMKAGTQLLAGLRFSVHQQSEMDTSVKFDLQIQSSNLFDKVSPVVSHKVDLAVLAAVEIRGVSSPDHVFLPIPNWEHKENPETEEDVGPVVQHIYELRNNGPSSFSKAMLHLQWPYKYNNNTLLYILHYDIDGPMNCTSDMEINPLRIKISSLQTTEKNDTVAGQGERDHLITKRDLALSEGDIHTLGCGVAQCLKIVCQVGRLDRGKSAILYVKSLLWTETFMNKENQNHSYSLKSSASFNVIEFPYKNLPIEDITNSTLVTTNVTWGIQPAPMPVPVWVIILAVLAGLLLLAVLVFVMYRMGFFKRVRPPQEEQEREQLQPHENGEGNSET
T1 sequence (P05106 27-788, chain 2 of 2): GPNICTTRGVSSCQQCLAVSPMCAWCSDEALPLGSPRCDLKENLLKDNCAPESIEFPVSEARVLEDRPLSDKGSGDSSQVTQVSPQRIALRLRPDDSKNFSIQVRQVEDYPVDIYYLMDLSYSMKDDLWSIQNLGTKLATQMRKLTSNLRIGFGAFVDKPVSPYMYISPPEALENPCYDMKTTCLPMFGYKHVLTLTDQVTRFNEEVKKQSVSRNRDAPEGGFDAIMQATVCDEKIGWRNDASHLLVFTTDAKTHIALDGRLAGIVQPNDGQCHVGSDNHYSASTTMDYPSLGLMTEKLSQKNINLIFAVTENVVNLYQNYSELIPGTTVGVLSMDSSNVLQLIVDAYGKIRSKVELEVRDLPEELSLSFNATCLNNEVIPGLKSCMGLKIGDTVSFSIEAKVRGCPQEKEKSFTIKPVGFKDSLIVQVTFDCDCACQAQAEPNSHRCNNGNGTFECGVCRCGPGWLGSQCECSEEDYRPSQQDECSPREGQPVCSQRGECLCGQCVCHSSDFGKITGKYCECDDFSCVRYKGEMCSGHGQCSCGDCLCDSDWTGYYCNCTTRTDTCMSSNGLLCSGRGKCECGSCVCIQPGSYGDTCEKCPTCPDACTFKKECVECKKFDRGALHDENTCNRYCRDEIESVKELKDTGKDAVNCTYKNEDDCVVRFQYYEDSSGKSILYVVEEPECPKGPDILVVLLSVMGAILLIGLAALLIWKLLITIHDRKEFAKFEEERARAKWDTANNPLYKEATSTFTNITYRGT

Sequence of TNFα (P01375 77-233): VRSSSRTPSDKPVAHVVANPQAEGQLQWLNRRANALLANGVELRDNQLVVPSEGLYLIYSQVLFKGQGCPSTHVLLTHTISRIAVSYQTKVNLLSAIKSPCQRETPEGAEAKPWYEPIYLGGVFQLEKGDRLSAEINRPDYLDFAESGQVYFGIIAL

B1: RGD4C融合抗TNFα纳米抗体 N端-VHH-Linker-RGD4C-6HIS-C端 (VHH)
VHH: QVQLVESGGGLVQAGGSLRLSCTASGQTSSTADMGWFRQPPGKGREFVARISGIDGTTYYDEPVKGRFTISRDKAQNTVYLQMDSLKPEDTAVYYCRSPRYADQWSAYDYWGQGTQVTVSS
notes: also called V-L-R-H; RGD4C-anti-TNFα-Nanobody
TNFα
  IC50, inhibition of TNFα cytotoxicity on L929 cells (MTT): 0.106 nM
整合素αvβ3
  binding result: binds

B2: RGD4C融合抗TNFα纳米抗体 N端-RGD4C-Linker-6HIS-VHH-C端 (VHH)
VHH: B1 VHH
TNFα
  IC50, inhibition of TNFα cytotoxicity on L929 cells (MTT): 0.187 nM

B3: RGD4C融合抗TNFα纳米抗体 N端-VHH-6HIS-Linker-RGD4C-C端 (VHH)
VHH: B1 VHH
TNFα
  IC50, inhibition of TNFα cytotoxicity on L929 cells (MTT): 0.113 nM
